Data: publication PMC3150272, “Crystal Structure of Reovirus Attachment Protein σ1 in Complex with Sialylated Oligosaccharides” (PLoS Pathogens, 2011)

Target: the molecule itself
Assay: crystal structure; crystals grown in 15% PEG200, 0.1 M MES pH 6.5; space group P2(1)2(1)2, one trimer in the asymmetric unit; soaked with 10 mM α-2,3-sialyllactose, α-2,6-sialyllactose or α-2,8-disialyllactose

B1: reovirus type 3 Dearing (T3D) attachment protein σ1, body and head domains (residues 170-455), Ile249 (domain or fragment)
chain: VTSAGAPLSIRNNRMTMGLNDGLTLSGNNLAIRLPGNTGLNIQNGGLQFRFNTDQFQIVNNNLTLKTTVFDSINSRIGAIEQSYVASAVTPLRLNSSTKVLDMLIDSSTLEINSSGQLTVRSTSPNLRYPIADVSGGIGMSPNYRFRQSMWIGIVSYSGSGLNWRVQVNSDIFIVDDYIHICLPAFDGFSIADGGDLSLNFVTGLLPPLLTGDTEPAFHNDVVTYGAQTVAIGLSSGGAPQYMSKNLWVEQWQDGVLRLRVEGGGSITHSNSKWPAMTVSYPRSFT
notes: The His6-tagged GCN4 trimerization domain was removed by trypsin before the final purification and crystallization; also called T3D σ1; reovirus attachment protein σ1; source: E. coli Rosetta 2 DE3, purified (Ni-IMAC, on-column trypsin digestion, Superdex-200 SEC); not shown: His6, N-terminal, cleaved; GCN4 trimerization domain (modified GCN4 leucine zipper), N-terminal, cleaved
  stoichiometry N: 3
